From patent US6046310, “FAS ligand fusion proteins and their uses” (Protein Design Labs., Inc., dated 2000)

Legend:
[1] = target: T1, Fas on the cell surface of human cell lines (MOLT-4, CESS, T47D) (human, UniProt P25445); test: cell-based or functional assay
[2] = target: T1, Fas on the cell surface of human cell …; test: flow cytometry on MOLT-4 cells (express Fas but not the antigen for HuABL364), anti-human IgG FITC
Experimental: MOLT-4, a human T lymphocyte line that expresses Fas on the cell surface (B. Trauth et al., *Science*, 245:301, 1989, incorporated herein by reference) but not the antigen for HuABL364, was stained by incubation with protein G-purified HuABL364 lg-FasL followed by incubation with an anti-human IgG FITC reagent (Jackson Immunoresearch, #715-096-151). Positive staining by HuABL364 Ig-FasL was detected by flow cytometry, compared to negative staining with the HuABL364 antibody.

| Binder | % apoptotic cells, CESS [1] [% apoptotic cells] | % apoptotic cells, T47D [1] [% apoptotic cells] | binding result [2] |
| --- | --- | --- | --- |
| HuABL364 Ig-FasL5 (other) heavy (part 1 of 2): EVQLLESGGGLVQPGGSLRLSCAASGFTFSDYYMYWVRQAPEKRLEWVAYISNGGGSSHYVDSVKGRFTISRDNAKNTLYLQMNSLRAEDTALYHCARGMDYGAWFAYWGQGTLVTVSS heavy (part 2 of 2): GTGHPSPPPEKKELRKVAHLTGKSNSRSMPLEWEDTYGIVLLSGVKYKKGGLVINETGLYFVYSKVYFRGQSCNNLPLSHKVYMRNSKYPQDLVMMEGKMMSYCTTGQMWARSSYLGAVFNLTSADHLYVNVSELSLVNFEESQTFFGLYKL light: DIVMTQSPLSLPVTPGEPASISCRSSQSIVHSNGNTYLEWYLQKPGQSPQLLISKVSNRFSGVPDRFSGSGSGTDFTLKISRVEAEDVGVYYCFQGSHVPFTFGQGTKLEIK | 88 | 91 | – |
| HuABL364 Ig-FasL5 I168A (other) heavy (part 1 of 2): EVQLLESGGGLVQPGGSLRLSCAASGFTFSDYYMYWVRQAPEKRLEWVAYISNGGGSSHYVDSVKGRFTISRDNAKNTLYLQMNSLRAEDTALYHCARGMDYGAWFAYWGQGTLVTVSS heavy (part 2 of 2): GTGHPSPPPEKKELRKVAHLTGKSNSRSMPLEWEDTYGAVLLSGVKYKKGGLVINETGLYFVYSKVYFRGQSCNNLPLSHKVYMRNSKYPQDLVMMEGKMMSYCTTGQMWARSSYLGAVFNLTSADHLYVNVSELSLVNFEESQTFFGLYKL light: DIVMTQSPLSLPVTPGEPASISCRSSQSIVHSNGNTYLEWYLQKPGQSPQLLISKVSNRFSGVPDRFSGSGSGTDFTLKISRVEAEDVGVYYCFQGSHVPFTFGQGTKLEIK | 81 | 91 | – |
| HuABL364 Ig-FasL5 L170A (other) heavy (part 1 of 2): EVQLLESGGGLVQPGGSLRLSCAASGFTFSDYYMYWVRQAPEKRLEWVAYISNGGGSSHYVDSVKGRFTISRDNAKNTLYLQMNSLRAEDTALYHCARGMDYGAWFAYWGQGTLVTVSS heavy (part 2 of 2): GTGHPSPPPEKKELRKVAHLTGKSNSRSMPLEWEDTYGIVALSGVKYKKGGLVINETGLYFVYSKVYFRGQSCNNLPLSHKVYMRNSKYPQDLVMMEGKMMSYCTTGQMWARSSYLGAVFNLTSADHLYVNVSELSLVNFEESQTFFGLYKL light: DIVMTQSPLSLPVTPGEPASISCRSSQSIVHSNGNTYLEWYLQKPGQSPQLLISKVSNRFSGVPDRFSGSGSGTDFTLKISRVEAEDVGVYYCFQGSHVPFTFGQGTKLEIK | 87 | 98 | – |
| HuABL364 Ig-FasL5 Y189A (other) heavy (part 1 of 2): EVQLLESGGGLVQPGGSLRLSCAASGFTFSDYYMYWVRQAPEKRLEWVAYISNGGGSSHYVDSVKGRFTISRDNAKNTLYLQMNSLRAEDTALYHCARGMDYGAWFAYWGQGTLVTVSS heavy (part 2 of 2): GTGHPSPPPEKKELRKVAHLTGKSNSRSMPLEWEDTYGIVLLSGVKYKKGGLVINETGLAFVYSKVYFRGQSCNNLPLSHKVYMRNSKYPQDLVMMEGKMMSYCTTGQMWARSSYLGAVFNLTSADHLYVNVSELSLVNFEESQTFFGLYKL light: DIVMTQSPLSLPVTPGEPASISCRSSQSIVHSNGNTYLEWYLQKPGQSPQLLISKVSNRFSGVPDRFSGSGSGTDFTLKISRVEAEDVGVYYCFQGSHVPFTFGQGTKLEIK | 24 | 11 | – |
| HuABL364 Ig-FasL5 Y244A (other) heavy (part 1 of 2): EVQLLESGGGLVQPGGSLRLSCAASGFTFSDYYMYWVRQAPEKRLEWVAYISNGGGSSHYVDSVKGRFTISRDNAKNTLYLQMNSLRAEDTALYHCARGMDYGAWFAYWGQGTLVTVSS heavy (part 2 of 2): GTGHPSPPPEKKELRKVAHLTGKSNSRSMPLEWEDTYGIVLLSGVKYKKGGLVINETGLYFVYSKVYFRGQSCNNLPLSHKVYMRNSKYPQDLVMMEGKMMSYCTTGQMWARSSALGAVFNLTSADHLYVNVSELSLVNFEESQTFFGLYKL light: DIVMTQSPLSLPVTPGEPASISCRSSQSIVHSNGNTYLEWYLQKPGQSPQLLISKVSNRFSGVPDRFSGSGSGTDFTLKISRVEAEDVGVYYCFQGSHVPFTFGQGTKLEIK | 24 | 16 | – |

The remaining lines, values ahead:

| % apoptotic cells, CESS [1] [% apoptotic cells] | % apoptotic cells, T47D [1] [% apoptotic cells] | binding result [2] | Binder |
| --- | --- | --- | --- |
| 26 | 15 | – | HuABL364 Ig-FasL5 H148S (other) heavy (part 1 of 2): EVQLLESGGGLVQPGGSLRLSCAASGFTFSDYYMYWVRQAPEKRLEWVAYISNGGGSSHYVDSVKGRFTISRDNAKNTLYLQMNSLRAEDTALYHCARGMDYGAWFAYWGQGTLVTVSS heavy (part 2 of 2): GTGHPSPPPEKKELRKVASLTGKSNSRSMPLEWEDTYGIVLLSGVKYKKGGLVINETGLYFVYSKVYFRGQSCNNLPLSHKVYMRNSKYPQDLVMMEGKMMSYCTTGQMWARSSYLGAVFNLTSADHLYVNVSELSLVNFEESQTFFGLYKL light: DIVMTQSPLSLPVTPGEPASISCRSSQSIVHSNGNTYLEWYLQKPGQSPQLLISKVSNRFSGVPDRFSGSGSGTDFTLKISRVEAEDVGVYYCFQGSHVPFTFGQGTKLEIK |
| 25 | 10 | – | HuABL364 Ig-FasL5 Y192A (other) heavy (part 1 of 2): EVQLLESGGGLVQPGGSLRLSCAASGFTFSDYYMYWVRQAPEKRLEWVAYISNGGGSSHYVDSVKGRFTISRDNAKNTLYLQMNSLRAEDTALYHCARGMDYGAWFAYWGQGTLVTVSS heavy (part 2 of 2): GTGHPSPPPEKKELRKVAHLTGKSNSRSMPLEWEDTYGIVLLSGVKYKKGGLVINETGLYFVASKVYFRGQSCNNLPLSHKVYMRNSKYPQDLVMMEGKMMSYCTTGQMWARSSYLGAVFNLTSADHLYVNVSELSLVNFEESQTFFGLYKL light: DIVMTQSPLSLPVTPGEPASISCRSSQSIVHSNGNTYLEWYLQKPGQSPQLLISKVSNRFSGVPDRFSGSGSGTDFTLKISRVEAEDVGVYYCFQGSHVPFTFGQGTKLEIK |
| 90 | 95 | – | HuABL364 Ig-FasL5 M229A (other) heavy (part 1 of 2): EVQLLESGGGLVQPGGSLRLSCAASGFTFSDYYMYWVRQAPEKRLEWVAYISNGGGSSHYVDSVKGRFTISRDNAKNTLYLQMNSLRAEDTALYHCARGMDYGAWFAYWGQGTLVTVSS heavy (part 2 of 2): GTGHPSPPPEKKELRKVAHLTGKSNSRSMPLEWEDTYGIVLLSGVKYKKGGLVINETGLYFVYSKVYFRGQSCNNLPLSHKVYMRNSKYPQDLVMMEGKAMSYCTTGQMWARSSYLGAVFNLTSADHLYVNVSELSLVNFEESQTFFGLYKL light: DIVMTQSPLSLPVTPGEPASISCRSSQSIVHSNGNTYLEWYLQKPGQSPQLLISKVSNRFSGVPDRFSGSGSGTDFTLKISRVEAEDVGVYYCFQGSHVPFTFGQGTKLEIK |
| 32 | 88 | – | HuABL364 Ig-FasL5 Y232A (other) heavy (part 1 of 2): EVQLLESGGGLVQPGGSLRLSCAASGFTFSDYYMYWVRQAPEKRLEWVAYISNGGGSSHYVDSVKGRFTISRDNAKNTLYLQMNSLRAEDTALYHCARGMDYGAWFAYWGQGTLVTVSS heavy (part 2 of 2): GTGHPSPPPEKKELRKVAHLTGKSNSRSMPLEWEDTYGIVLLSGVKYKKGGLVINETGLYFVYSKVYFRGQSCNNLPLSHKVYMRNSKYPQDLVMMEGKMMSACTTGQMWARSSYLGAVFNLTSADHLYVNVSELSLVNFEESQTFFGLYKL light: DIVMTQSPLSLPVTPGEPASISCRSSQSIVHSNGNTYLEWYLQKPGQSPQLLISKVSNRFSGVPDRFSGSGSGTDFTLKISRVEAEDVGVYYCFQGSHVPFTFGQGTKLEIK |
| 87 | 95 | – | HuABL364 Ig-FasL5 V248A (other) heavy (part 1 of 2): EVQLLESGGGLVQPGGSLRLSCAASGFTFSDYYMYWVRQAPEKRLEWVAYISNGGGSSHYVDSVKGRFTISRDNAKNTLYLQMNSLRAEDTALYHCARGMDYGAWFAYWGQGTLVTVSS heavy (part 2 of 2): GTGHPSPPPEKKELRKVAHLTGKSNSRSMPLEWEDTYGIVLLSGVKYKKGGLVINETGLYFVYSKVYFRGQSCNNLPLSHKVYMRNSKYPQDLVMMEGKMMSYCTTGQMWARSSYLGAAFNLTSADHLYVNVSELSLVNFEESQTFFGLYKL light: DIVMTQSPLSLPVTPGEPASISCRSSQSIVHSNGNTYLEWYLQKPGQSPQLLISKVSNRFSGVPDRFSGSGSGTDFTLKISRVEAEDVGVYYCFQGSHVPFTFGQGTKLEIK |
| – | – | no binding | HuABL364 antibody (antibody, V domains shown) VH: EVQLLESGGGLVQPGGSLRLSCAASGFTFSDYYMYWVRQAPEKRLEWVAYISNGGGSSHYVDSVKGRFTISRDNAKNTLYLQMNSLRAEDTALYHCARGMDYGAWFAYWGQGTLVTVSS VL: DIVMTQSPLSLPVTPGEPASISCRSSQSIVHSNGNTYLEWYLQKPGQSPQLLISKVSNRFSGVPDRFSGSGSGTDFTLKISRVEAEDVGVYYCFQGSHVPFTFGQGTKLEIK |
